Source: US12473560 (FLAGSHIP PIONEERING INNOVATIONS VI, dated 2025)
Where two headings read alike, the source gives them in different places.

What was measured:
[1] = target: T1, SARS-CoV-2 Spike protein receptor-binding domain (RBD) (SARS-CoV-2, UniProt P0DTC2 319-527); experiment: BLI (Octet), IgG1 captured on anti-human Fc sensors, RBD in solution; as to Req: test concentration or dose not given here; as to Response: test concentration or dose not given here; as to kobs: test concentration or dose not given here
[2] = target: SARS-CoV-2 Spike as carried on rVSV-SARS-CoV-2 pseudovirus and authentic WT virus (SARS-CoV-2, UniProt P0DTC2 14-1273); experiment: cell-based or functional assay
[3] = target: T1, SARS-CoV-2 Spike protein …
[4] = target: T1, SARS-CoV-2 Spike protein …; experiment: BLI (Octet), IgG captured on anti-human Fc sensors, RBD in solution
[5] = target: T1, SARS-CoV-2 Spike protein …; experiment: BLI (Octet Red96e), IgG captured on anti-human Fc sensors, RBD in solution

Binder	Kd [1] [nM]	Req [1] [nm shift]	Response [1] [nm shift]	kobs [1] [s⁻¹]	koff [1] [s⁻¹]	kon [1] [M⁻¹ s⁻¹]	Neutralization (ng/mL), Authentic Virus IC50 [2] [ng/mL]	Neutralization (ng/mL), Authentic Virus IC80 [2] [ng/mL]	Neutralization (ng/mL), Pseudovirus IC50 [2] [ng/mL]	Neutralization (ng/mL), Pseudovirus IC80 [2] [ng/mL]	Neutralization (ng/mL), Pseudovirus IC90 [2] [ng/mL]	Kd [3] [nM]	Kd [4] [nM]	Kd [5] [nM]	koff [5] [s⁻¹]	kon [5] [M⁻¹ s⁻¹]
AB-11 full-length IgG1 (humanized) (antibody, V domains shown) VH: EVQLVQSGAEVKKSGESLKISCKASGYTFTTYWMHWVRQMPGKGLEWMGAIYPGNSDTQYSPSFQGQVTLSADKSISTAYLQWSSLKASDTAMYFCTREGIPQLLRTLDYWGQGTLVTVSS VL: EIVLTQSPGTLSLSPGERATLSCRASQEISGYLAWLQQKPGQAPRRLIYAASSLATGIPDRFSGSGSGTDFTLTISRLEPEDFAVYYCLQYLSYPWTFGQGTKVEIK	32.7	0.326	0.319	0.0104	0.00255	78000	–	–	–	–	–	–	–	–	–	–
AB-10 full-length IgG1 (humanized) (antibody, V domains shown) VH: QVQLVQSGAEVKKPGASVKVSCKASGYTFTSYWMHWVRQAPGQGLEWMGAIYPGNGDTNYAQKFQGRVTMTADTSISTAYMELSRLRSDDTAVYYCTREGIPQLLNTLDVWGQGTLVTVSS VL: DIQMTQSPSSLSASVGDRVTITCRASQEISGYLNWYQQKPGKAPKRLIYAASSLQSGVPSRFSGSGSGTDFTLTISSLQPEDFATYYCQQYLSYPWTFGQGTKVEIK	25.4	0.102	0.114	0.0151	0.00306	121000	–	–	–	–	–	–	–	–	–	–
AB-12 full-length IgG1 (humanized) (antibody, V domains shown) VH: EVQLVQSGAEVKKPGESLKISCKASGYTFTTYWMHWVRQMPGKGLEWMGAIYPGNSDTRYSPSFQGQVTLSVDKSITTAYLQWNSLKASDTAMYFCTREGIPQLLRTLDYWGQGTLVTVSS VL: DIQMTQSPSSLSASVGDRVTITCRASQGISGYLSWLQQKPEKAPKRLIYAASTLQSGVPSRFSGSGSGTDFTLTISSLQPEDFATYYCQQYLSYPWTFGQGTKLEIK	32.4	0.135	0.145	0.0149	0.00366	113000	–	–	–	–	–	–	–	–	–	–
AB-1 full-length IgG1 (antibody, V domains shown) VH: EVQLEESGTVLARPGASVKMSCKASGYTFTTYWMHWIKQRPGQGLEWIGAIYPGNSDTQYNQKFKDKAKLTAVKSTSSAYMELSSLTNEDSAVYFCTREGIPQLLRTLDYWGQGTSVTVSS VL: DILMTQSPSSLSASLGERVSLTCRASQEISGYLSWLQEKPDGTIKRLIYAASTLDSGVPKRFSGSRSGSDYSLTISSLESEDFADYYCLQYLSYPWTFGGGTKLEIK	15.9	0.388	0.364	0.00924	0.00127	79700	78	543	0.0782	2.6	9.56	34.2	39	39	0.0024	62000
AB-2 full-length IgG1 (antibody, V domains shown) VH: EVQLEESGTVLARPGASVKMSCKASGYTFTTYWMHWIKQRPGQGLEWIGAIYPGNGDTNYNQKFKDKAKLTAVKSTSSAYMELSSLTNEDSAVYFCTREGIPQLLRTLDYWGQGTSVTVSS VL: DILMTQSPSSLSASLGERVSLTCRASQEISGYLSWLQEKPDGTIKRLIYAASTLDSGVPKRFSGSRSGSDYSLTISSLESEDFADYYCLQYLSYPWTFGGGTKLEIK	–	–	–	–	–	–	379	3030	9.65	35.2	760	127	–	–	–	–
AB-4 full-length IgG1 (antibody, V domains shown) VH: EVQLEESGTVLARPGASVKMSCKASGYTFTTYWMHWIKQRPGQGLEWIGAIYPGNGDTNYNQKFKDKAKLTAVKSTSSAYMELSSLTNEDSAVYFCTREGIPQLLRTFDYWGQGTSVTVSS VL: DILMTQSPSSLSASLGERVSLTCRASQEIGGYLSWLQEKPDGTIKRLIYAASTLDSGVPKRFSGSRSGSDYSLTISSLESEDFADYYCLQYLSYPWTFGGGTKLEIK	–	–	–	–	–	–	–	–	–	–	–	151	–	–	–	–
AB-5 full-length IgG1 (antibody, V domains shown) VH: EVQLEESGTVLARPGASVKMSCKASGYTFTSYWMHWIKQRPGQGLEWIGAIYPGNGDTNYNQKFKDKAKLTAVKSTSSAYMELSSLTNEDSAVYFCTREGIPQLLNTLDVWGQGTSVTVSS VL: DILMTQSPSSLSASLGERVSLTCRASQEISGYLSWLQEKPDGTIKRLIYAASTLDSGVPKRFSGSRSGSDYSLTISSLESEDFADYYCQQYLSYPWTFGGGTKLEIK	41.3	0.318	0.315	0.0117	0.00341	82500	260	2460	8.25	35.2	71.1	148	–	–	–	–
AB-7 full-length IgG1 (antibody, V domains shown) VH: EVQLEESGTVLARPGASVKMSCKASGYTFTSYWMHWIKQRPGQGLEWIGAIYPGNSDTNYNQKFKDKAKLTAVKSTSSAYMELSSLTNEDSAVYFCTREGIPQLLRSLDYWGQGTSVTVSS VL: DILMTQSPSSLSASLGERVSLTCRASQEISGYLSWLQEKPDGTIKRLIYAASTLDSGVPKRFSGSRSGSDYSLTISSLESEDFADYYCLQYLSYPWTFGGGTKLEIK	–	–	–	–	–	–	–	–	24.6	–	–	386	–	–	–	–
AB-8 full-length IgG1 (antibody, V domains shown) VH: EVQLEESGTVLARPGASVKMSCKASGYTFTTYWMHWIKQRPGQGLEWIGAIYPGNSDTIYNQKFKDKAKLTAVKSTSSAYMELSSLTNEDSAVYFCTREGIPQLLRTLDYWGQGTSVTVSS VL: DILMTQSPSSLSASLGERVSLTCRASQEISGYLSWLQEKPDGTIKRLIYAASTLDSGVPKRFSGSRSGSDYSLTISSLESEDFADYYCLQYLSYPWTFGGGTKLEIK	–	–	–	–	–	–	222	1600	0.792	3.34	7.6	104	–	–	–	–
AB-3 full-length IgG1 (antibody, V domains shown) VH: EVQLEESGTVLARPGASVKMSCKASGYTFTTYWMHWIKQRPGQGLEWIGAIYPGNGDTNYNQKFKDKAKLTAVKSTSSAYMELSSLTNEDSAVYFCTREGIPQKLRTLDVWGQGTSVTVSS VL: DILMTQSPSSLSASLGERVSLTCRASQEISGYLSWLQEKPDGTIKRLIYAASTLDSGVPKRFSGSRSGSDYSLTISSLESEDFADYYCLQYLSYPWTFGGGTKLEIK	–	–	–	–	–	–	3550	11100	17.6	110	502	177	–	–	–	–
AB-9 full-length IgG1 (antibody, V domains shown) VH: EVQLEESGTVLARPGASVKMSCKASGYTFTSYWMHWIKQRPGQGLEWIGAIYPGNSDTNYNQKFKDKAKLTAVTSTSSAYMELSSLTNEDSAVYFCTREGIPQLLRTLDYWGQGTSVTVSS VL: DILMTQSPSSLSASLGERVSLTCRASQEISGYLSWLQEKPDGTIKRLIYAASTLDSGVPKRFSGSRSGSDYSLTISSLESEDFADYYCLQYLSYPWTFGGGTKLEIK	–	–	–	–	–	–	100	627	0.824	4.14	9.95	98.8	–	–	–	–
AB-6 full-length IgG1 (antibody, V domains shown) VH: EVQLEESGTVLARPGASVKMSCKASGYTFTSYWMHWIKQRPGQGLEWIGAIYPGNSDTNYNQKFKDKAKLTAVKSTSSAYMELSSLTNEDSAVYFCTREGIPQLTRTLDYWGQGTSVTVSS VL: DILMTQSPSSLSASLGERVSLTCRASQEISGYLSWLQEKPDGTIKRLIYAASTLDSGVPKRFSGSRSGSDYSLTISSLESEDFADYYCLQYLSYPWTFGGGTKLEIK	–	–	–	–	–	–	25000	25000	6.15	27.2	58.4	103	–	–	–	–
